The target in assay [1] is T1, human EGFRvIII-hFc protein (human, UniProt P00533 25-645).
T1 construct: extracellular domain; made in HEK293 cells, purified on protein A; also called immunogen A; hFc-tagged EGFRvIII protein; not shown: human IgG Fc fragment (hFc) of the pCpC vector
Kind of assay: ELISA, coated EGFRvIII-hFc, antibody 0.001 nM. On the procedure:
(§1) The purified immunogen A (EGFRvIII-hFc) obtained in example 1 (for the preparation method, see step (I) in example 1) is diluted with PBS to a final concentration of 1.0 μg/mL, and then added to a 96-well ELISA plate at 100 μl/well. The plate is sealed with a plastic film and incubated at 4° C. overnight. The next day, the plate is washed twice with a plate washing solution [PBS+0.01% (v/v) Tween20], and added with a blocking solution [PBS+0.01% (v/v) Tween20+1% (w/w) BSA] for blocking 2 hours at room temperature. The blocking solution is discarded, and the purified EGFRvIII antibody obtained in example 2 is added at 100 μl/well. The plate is incubated for 2 hours at 37° C., and then washed 3 times with the plate washing solution [PBS+0.01% (v/v) Tween20]. The plate is added with an HRP (horseradish peroxidase) labeled secondary antibody (purchased from Sigma), incubated at 37° C. for 2 hours, and then washed 3 times with the plate washing solution [PBS+0.01% (v/v) Tween20]. The plate is added with 100 μl of TMB substrate/well, incubated for 30 minutes at room temperature, and then added with 100 μl of stopping solution (1.0N HCl)/well. A450 nm value is read using an ELISA plate reader (SpectraMax 384plus, purchased from Molecular Device), and the results are shown in FIG. 6 and table 10.

Assay [2] concerns the target T1, human EGFRvIII-hFc protein. Kind of assay: ELISA, coated EGFRvIII-hFc, antibody 0.1 nM. The procedure: as §1
The target in assay [3] is T1, human EGFRvIII-hFc protein. Kind of assay: ELISA, coated EGFRvIII-hFc, antibody 10 nM. The procedure: as §1
Assay [4] addresses T1, human EGFRvIII-hFc protein. The assay is described as follows: ELISA, coated EGFRvIII-hFc, antibody 0.0001 nM. The procedure: as §1
Assay [5] addresses T1, human EGFRvIII-hFc protein. The assay is described as follows: ELISA, coated EGFRvIII-hFc, antibody 100 nM. The procedure: as §1
Assay [6] deals with T1, human EGFRvIII-hFc protein. Kind of assay: ELISA, coated EGFRvIII-hFc, antibody 1 nM. On the procedure:
as §1

The target in assay [7] is T1, human EGFRvIII-hFc protein. Kind of assay: ELISA, coated EGFRvIII-hFc, antibody 0.01 nM. On the procedure:
as §1

In assay [8] the target is T2, human EGFR protein (wild-type), on cells (human, UniProt P00533 25-1210).
T2 construct: whole, on cells; transfected on CHO-K1 cells; endogenous on the human cell lines; the cell is named under assay; also called wild-type EGFR; hEGFR
The assay is described as follows: FACS on U87MG and HEB cells. The procedure:
The collected cells are suspended to 2×10⁶ cells/mL with an FACS buffer (HBSS+1% BSA, with the percentage being the mass percentage), added to a 96-well FACS reaction plate at 100 μL/well, then added with 100 μL/well of the purified EGFRvIII antibody (samples to be tested) obtained in example 2, and incubated on ice for 2 hours. The plate is centrifugally washed twice with the FACS buffer, added with 100 μL/well of a fluorescence (Alexa 488) labeled secondary antibody (purchased from Invitrogen), and then incubated on ice for 1 hour. The plate is centrifugally washed 3 times with the FACS buffer, added with 100 μL/well of a fixing solution [4% (v/v) paraformaldehyde] for suspending the cells, and centrifugally washed twice with the FACS buffer after 10 minutes. The cells are suspended in 100 μL of the FACS buffer, and the results are detected and analyzed by FACS (FACS Calibur, purchased from BD). Data analysis is performed by using the software (CellQuest) to obtain the mean fluorescence intensity (MFI) of the cells. Data is further analyzed by using the software (GraphPad Prism5) to perform data fitting and calculate EC50. […] A431 cells (human epidermal cell cancer cell lines) have a large amount of wild-type EGFR protein expressed on the surface thereof. […] U87MG cells (human glioma cell lines) have a small amount of wild-type EGFR protein expressed on the surface thereof, while HEB cells (human glioma cell lines) have a high level of wild-type EGFR protein expression on the surface thereof.

B1: Murine anti-49G12 (antibody, V domains shown)
VH: EVQLLQSGAELVKPGASVKLSCTASGFNIKDYYMHWVKQRTEQGLEWIGRIDPEDGETKYAPKFQGKATMTADTSSNTAYLQLSSLTSEDTAVYYCASSAYYGRNYWGQGTTLTVSS
VL: QIVLTQSPAIMSASPGEKVTLTCSASSSLSSSYLYWYQQKPGSSPKLWIYSTSNLASGVPARFSGSGSGTSYSLTISSMEAEDAASYFCHQWSSYPYTFGGGTKLEIK
notes: murine hybridoma antibody; also called 49G12G5
On to B1, for which the OD450 nm in assay [1] amounted to 0.13; in assay [2] it was 0.64; in assay [3] it was 3.8; in assay [4], 0.08; in assay [5], 3.79; in assay [6], 3.2. The molecule further registered an OD450 nm in assay [7] of 0.14. Moreover, the binding result in assay [8] is “no binding”.

B2: Murine anti-51G7 (antibody, V domains shown)
VH: EVQLQQSGAELVKPGASVKLSCTASGFNIKDFYIHWVKQRTEQGLEWIGRIDPEDGETKYAPKFQDKATIIADTSSNTAYLQLSSLTSEDTAVYYCASSSYYGNNYWGQGTTLTVSS
VL: QIVLTQSPAIMSASPGEKVTLTCSASSSVSSNYLYWYQQKPGSSPKLWIYSTSNLASGVPARFSGSGSGTSYSLTISSMEAEDAASYFCHQWSSFPYTFGGGTKLEIK
notes: murine hybridoma antibody; also called 51G7C2
With B2, the OD450 nm in assay [1] was 0.09; in assay [2], 0.46; in assay [3], 3.69; in assay [4], 0.08; in assay [5], 3.68; in assay [6], 2.44. The molecule also yielded an OD450 nm in assay [7] of 0.15. Also, the binding result in assay [8] is “no binding”.

The values are drawn from US20210032351A1 (XDCEXPLORER SHANGHAI, published 2021).
